Assay [1] concerns the target T1, Suv39h1 R24,K27A double mutant (FLAG-tagged) (human, UniProt O43463 1-412, R24A | K27A).
T1 sequence: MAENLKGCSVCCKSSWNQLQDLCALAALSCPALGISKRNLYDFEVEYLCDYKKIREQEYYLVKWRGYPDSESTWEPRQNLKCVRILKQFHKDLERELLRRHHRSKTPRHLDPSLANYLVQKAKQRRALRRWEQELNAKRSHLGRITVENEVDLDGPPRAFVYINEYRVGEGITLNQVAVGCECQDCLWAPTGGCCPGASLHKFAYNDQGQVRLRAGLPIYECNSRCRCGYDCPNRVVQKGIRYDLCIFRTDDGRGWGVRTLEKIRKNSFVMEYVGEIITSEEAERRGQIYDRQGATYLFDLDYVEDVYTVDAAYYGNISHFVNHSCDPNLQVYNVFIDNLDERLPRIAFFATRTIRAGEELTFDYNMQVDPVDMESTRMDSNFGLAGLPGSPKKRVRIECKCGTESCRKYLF
The experiment in a line: pull-down.

The target of assay [2] is T2, Suv39h1, wild type (FLAG-tagged, recombinant human) (human, UniProt O43463 1-412).
T2 sequence: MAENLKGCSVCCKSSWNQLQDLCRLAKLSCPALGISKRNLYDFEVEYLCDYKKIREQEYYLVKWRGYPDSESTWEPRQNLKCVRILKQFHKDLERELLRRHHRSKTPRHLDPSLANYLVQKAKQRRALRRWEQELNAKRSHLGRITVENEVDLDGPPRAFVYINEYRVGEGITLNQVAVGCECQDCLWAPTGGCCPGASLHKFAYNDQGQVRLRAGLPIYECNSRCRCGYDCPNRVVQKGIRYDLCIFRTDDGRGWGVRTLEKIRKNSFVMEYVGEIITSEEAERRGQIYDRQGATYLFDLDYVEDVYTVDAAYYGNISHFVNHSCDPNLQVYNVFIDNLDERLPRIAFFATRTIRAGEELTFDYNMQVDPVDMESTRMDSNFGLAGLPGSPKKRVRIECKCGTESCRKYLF
The experiment in a line: pull-down.

B1: HP1β (human Cbx1), His6-tagged (natural protein)
chain: not shown
As for B1, the binding result in assay [1] and in assay [2] was “binds” throughout.

The record behind these values is PMC4876634 (Nature chemical biology, 2016).
